Assay results from patent publication US20160159924A1 (Novo Nordisk, published 2016).
Substitutions are numbered along the chain they refer to. Each block holds one binder with its values, some of them ahead of it.

Columns and labels:
recombinant human sc-uPA [1] = target: T1, recombinant human sc-uPA (human, UniProt P00749 21-431); experiment: cell-based or functional assay
[2] = target: endogenously derived human uPA (primary human M1/M2 macrophages; human neutrophil granulocytes) (human, UniProt P00749 21-431); experiment: cell-based or functional assay
recombinant human sc-uPA [3] = target: T1, recombinant human sc-uPA; experiment: SPR (Biacore), mAb immobilised, sc-uPA as analyte, 25 C
Method: (§1) In order to compare with murine mAb, the binding profile to recombinant human sc-uPA protein (SEQ ID NO: 1) and cynomolgus sc-uPA (SEQ ID NO: 3) was measured by surface plasmon resonance (SPR).
(§2) The experiments were performed on a Biacore™ instrument (GE Healthcare) and analysed with the BIAcore 4000 Evaluation Software. […] Recombinant human sc-uPA and cynomolgus sc-uPA proteins were diluted in HBS-N (GE Healthcare Cat BR-1006-70) with 1% BSA buffer with a dilution factor 3× ranging 1000-0.13 nM. Recombinant human sc-uPA and cynomolgus sc-uPA proteins were injected for 60 s, followed by a 600 s dissociation phase. Binding curves were measured at 25° C. with a flow rate of 30 μL/min. Regeneration of the chip surface was performed with pH1.5 Glycine for 25 s at 30 μl/min. Determination of the kinetic parameters was performed by fitting with a 1:1 binding model. Kinetic parameters were calculated and are stated in Table 14 below.

[4] = target: T2, recombinant cynomolgus sc-uPA (cynomolgus monkey, UniProt P16227 29-433 (Papio cynocephalus entry)); experiment: as above
T2 construct: The exact signal peptide is said not to be established; also called cyno pro-uPA; cyno pro-uPA-6xHis
Method: as §1, §2

[5] = target: T2, recombinant cynomolgus sc-uPA; experiment: cell-based or functional assay
recombinant human sc-uPA [6] = target: T1, recombinant human sc-uPA; experiment: cell-based or functional assay; remark: listed apart in the source
[7] = target: recombinant human tc-uPA (R&D Systems, #1310-SE) (human, UniProt P00749 21-178; P00749 179-431); experiment: cell-based or functional assay
recombinant human sc-uPA [8] = target: T1, recombinant human sc-uPA; experiment: SPR (Biacore T200), mAb immobilised, sc-uPA as analyte
Method: (§3) Affinities of the anti-uPA mAbs towards human and cynomolgus sc-uPA (SEQ ID NO: 1 and 3) were measured by SPR using a Biacore T200 instrument (GE Healthcare). These studies were performed using a direct binding procedure. […] Injection time was 60 sec., followed by 180 sec. dissociation. Regeneration was performed by injection of two short pulses of glycine-HCl pH 1.5.
(§4) The kinetic parameters (kₐ, kd and KD) for the interaction were calculated using a 1:1 interaction Langmuir fitting model.
(§5) Results are shown in Table 2 Association rate constant (ka) and Dissociation rate constant (kd) were measured. Equilibrium dissociation constant is calculated as KD=kd/ka.

[9] = target: T2, recombinant cynomolgus sc-uPA; experiment: as above
Method: as §3, §4, §5

recombinant human sc-uPA [10] = target: T1, recombinant human sc-uPA; experiment: SPR, mAb immobilised
Method: The binding affinity to recombinant human sc-uPA protein (SEQ ID NO:1) was measured by surface plasmon resonance (SPR).
(§6) The experiments were performed on a Biacore™ instrument (GE Healthcare) and analysed with the BIAcore 4000 Evaluation Software. Anti-human uPA mAb variants were directly immobilized at 150-600 RU on flow cells of a CM5 sensor chip (GE Healthcare; cat. # BR-1000-12) via amine coupling, respectively. Recombinant human sc-uPA was diluted in HBS-N (GE Healthcare Cat BR-1006-70) with 1% BSA buffer with a dilution factor 3× ranging 1000-0.13 nM. Recombinant human sc-uPA was injected for 60 s, followed by a 600 s dissociation phase. Binding curves were measured at 25° C. with a flow rate of 30 μL/min. Regeneration of the chip surface was performed with pH1.5 Glycine for 25 s at 30 μl/min. Determination of the kinetic parameters was performed by fitting with a 1:1 binding model. Binding affinities were calculated and are stated in Table 17 below.

recombinant human sc-uPA [11] = target: T1, recombinant human sc-uPA; experiment: SPR, mAb immobilised; remark: listed apart in the source
Method: The binding affinity to recombinant human sc-uPA protein (SEQ ID […]) was measured by surface plasmon resonance (SPR).
as §6, with “20” for “17”

- Kd (recombinant human sc-uPA [11]): 3.6 nM
B5: rec0266-0000-0010-VL_S91Y (antibody, mouse IgG1, name in Kabat numbering, V domains shown)
VH: DVKLVESGGGLVKPGGSLKLSCVASGFTFSSYTMSWVRQTPEKRLEWVATISGGGSHIYYADSVKGRFTISRDNAKNTLYLQMSSLKSEDTAIYYCTRDGRDGSWFAYWGQGTLVTVSA
VL: DIVMTQSPATLSVTPGDRVSLSCRTSQSIGDYLHWYQQKSHESPRLLIKYVSQSISGIPSRFSGSGSGSDFTLSINSVESEDVGVYYCQNYHSFPLTFGSGTKLELKR

- Kd (recombinant human sc-uPA [11]): 12 nM
B6: rec0266-0000-0010-VL_S91V (antibody, mouse IgG1, name in Kabat numbering, V domains shown)
VH: B5 VH
VL: B5 VL with Y91V

Continued, binder first:

B1: 0266-0000-0043 (antibody, human IgG4 S228P, kappa, V domains shown)
VH: DVKLVESGGGLVKPGGSLRLSCAASGFTFSSYTMSWVRQAPGKGLEWVATISGGGSHIYYADSVKGRFTISRDNAKNSLYLQMNSLRAEDTAVYYCTRDGRDGSWFAYWGQGTLVTVSS
VL: DIVMTQSPAFLSVTPGEKVTISCRTSQSIGDYLHWYQQKPDQSPKLLIKYVSQSISGIPSRFSGSGSGSDFTFTISSLEAEDAATYYCQNSHSFPLTFGGGTKVEIKR
notes: also called rec0266-0000-0043
- IC50, coupled zymogen activation assay, sc-uPA immobilized on uPAR of U937 cells (recombinant human sc-uPA [1]): < 0.7 nM
- IC50, plasmin generation by human M1/M2 macrophages [2]: 2.1 nM
- Kd (recombinant human sc-uPA [3]): 1.78 nM
- koff (recombinant human sc-uPA [3]): 0.0009 s⁻¹
- kon (recombinant human sc-uPA [3]): 506000 M⁻¹ s⁻¹
- Kd [4]: 0.112 nM
- koff [4]: 0.000164 s⁻¹
- kon [4]: 1.46e+06 M⁻¹ s⁻¹

B2: 0266-0000-0010 (antibody, IgG1, V domains shown)
VH: B5 VH
VL: DIVMTQSPATLSVTPGDRVSLSCRTSQSIGDYLHWYQQKSHESPRLLIKYVSQSISGIPSRFSGSGSGSDFTLSINSVESEDVGVYYCQNSHSFPLTFGSGTKLELK
- IC50, coupled zymogen activation assay, sc-uPA immobilized on uPAR of U937 cells (recombinant human sc-uPA [1]): < 0.7 nM
- IC50, coupled zymogen activation assay with cynomolgus sc-uPA [5]: 0.9 nM
- IC50, coupled zymogen activation assay (Ex. 5) (recombinant human sc-uPA [6]): < 0.7 nM
- IC50, sc-uPA activation assay (Ex. 8) (recombinant human sc-uPA [6]): 5 nM
- IC50, tc-uPA catalytic assay (Ex. 7) [7]: 113 nM
- Kd (recombinant human sc-uPA [8]): 1.02 nM
- koff (recombinant human sc-uPA [8]): 0.000345 s⁻¹
- kon (recombinant human sc-uPA [8]): 340000 M⁻¹ s⁻¹
- Kd [9]: 0.121 nM
- koff [9]: 5.74e-05 s⁻¹
- kon [9]: 473000 M⁻¹ s⁻¹

B3: rec0266-0000-0010 (antibody, mouse IgG1, V domains shown)
VH: B5 VH
VL: B5 VL with Y91S
notes: also called mAb rec0266-0000-0010
- Kd (recombinant human sc-uPA [10]): 0.47 nM
- Kd (recombinant human sc-uPA [11]): 0.47 nM
- Kd (recombinant human sc-uPA [3]): 0.944 nM
- koff (recombinant human sc-uPA [3]): 0.00053 s⁻¹
- kon (recombinant human sc-uPA [3]): 561000 M⁻¹ s⁻¹
- Kd [4]: 0.0526 nM
- koff [4]: 0.000104 s⁻¹
- kon [4]: 1.98e+06 M⁻¹ s⁻¹

B4: rec0266-0000-0010-VL_S91T (antibody, mouse IgG1, name in Kabat numbering, V domains shown)
VH: B5 VH
VL: B5 VL with Y91T
- Kd (recombinant human sc-uPA [11]): 0.88 nM

B7: 0266-0000-0015 (antibody, IgG1, V domains shown)
VH: QIQLVQSGPELKKPGETVRISCKASGYTFTDYGMNWIKQTPGKGLKWMGWINTYSGEPTYSDEFKGRFAFSLETSASTASLQINNLKNEDMATYFCARDFDDYDSSRYFDVWGAGTTVTVSS
VL: DIVMSQSPSSLGVSVGEKLTMTCKSSQSLLYSSYQKNFLAWYQQKPGQSPKLLISWASTRDSGVPDRFTGSGSGTDFTLTISSVKAEDLAVYYCQQYYIYPPTFGGGTKLEIK
notes: also called hybridoma m-uPA-1F58A1
- IC50, coupled zymogen activation assay, sc-uPA immobilized on uPAR of U937 cells (recombinant human sc-uPA [1]): < 0.7 nM
- IC50, coupled zymogen activation assay (Ex. 5) (recombinant human sc-uPA [6]): < 0.7 nM
- IC50, sc-uPA activation assay (Ex. 8) (recombinant human sc-uPA [6]): 3 nM
- IC50, tc-uPA catalytic assay (Ex. 7) [7]: 100 nM
- Kd (recombinant human sc-uPA [8]): 0.37 nM
- koff (recombinant human sc-uPA [8]): 0.000381 s⁻¹
- kon (recombinant human sc-uPA [8]): 1.03e+06 M⁻¹ s⁻¹
- Kd [9]: 5.32 nM
- koff [9]: 0.00717 s⁻¹
- kon [9]: 1.35e+06 M⁻¹ s⁻¹
